We go through 1 protein from paper PMC12480533 (Nature Communications, 2025).

This data set concerns the molecule itself. The data set can be described thus: cryo-EM structure.

B1: full-length human SLC30A10 (natural protein, UniProt Q6XR72 1-485, looked up)
chain: MGRYSGKTCRLLFMLVLTVAFFVAELVSGYLGNSIALLSDSFNMLSDLISLCVGLSAGYIARRPTRGFSATYGYARAEVVGALSNAVFLTALCFTIFVEAVLRLARPERIDDPELVLIVGVLGLLVNVVGLLIFQDCAAWFACCLRGRSRRLQQRQQLAEGCVPGAFGGPQGAEDPRRAADPTAPGSDSAVTLRGTSVERKREKGATVFANVAGDSFNTQNEPEDMMKKEKKSEALNIRGVLLHVMGDALGSVVVVITAIIFYVLPLKSEDPCNWQCYIDPSLTVLMVIIILSSAFPLIKETAAILLQMVPKGVNMEELMSKLSAVPGISSVHEVHIWELVSGKIIATLHIKYPKDRGYQDASTKIREIFHHAGIHNVTIQFENVDLKEPLEQKDLLLLCNSPCISKGCAKQLCCPPGALPLAHVNGCAEHNGGPSLDTYGSDGLSRRDAREVAIEVSLDSCLSDHGQSLNKTQEDQCYVNRTHF
On to B1, for which the “stoichiometry N” value is 2.
